In one data set the target is SHOX full length (Homo sapiens, UniProt O15266 O15266:1-292). The data set is described as follows: ChIP with SHOX antibody, U2OS cells, quantitative PCR. The conditions noted are these: tags: tetracycline-inducible in U2OS cells. The procedure: Hereby U2OS cells, which express the SHOX gene for 48 hours, were treated with formaldehyde to allow fixation of the DNA binding proteins to the DNA. The cell chromatin was isolated and the fixed DNA precipitated together with SHOX through addition of a SHOX specific antibody. For controls, […] or water was used instead of the antibody. The precipitated DNA was analyzed by quantitative RT-PCR for an accumulation of SHOX binding sites in the putative regulatory region of the BNP gene.

Data set [1] concerns the target T1, SHOX-GST (GST-SHOX-STM, SHOX aa 1-194) (Homo sapiens, UniProt O15266 O15266:1-194). The experiment in a line: EMSA. As to conditions: tags: N-terminal GST (pGEX, E. coli); chain copies: monomer at low, homodimer at high concentration (stated); label: 32P; 5' overhangs filled in. The procedure:
FIG. 3A: 10 fmol of ³²P-radiolabelled double stranded oligonucleotide containing the putative distal binding site of SHOX was incubated with 0, 0.05, 0.5 and 3 μl purified SHOX-GST (250 nM). Monomeric binding of SHOX-GST could be observed with volumes of 0.05 and 0.5 μl, an increase in SHOX-GST concentration led to the formation of homeodimers.
(§1) To create double stranded DNA for mobility shift assays two complementary oligonucleotides were annealed, generating 5′ overhangs on each side to permit radiolabelling using the Taq polymerase. The following oligonucleotides were used in the shift experiments (only the forward strand of the probes are given, putative binding site in bold, mutagenized nucleotides underlined): BNP-1220 Wt: […] [SEQ ID NO: 10]; BNP-1220a: […] [SEQ ID NO: 11]; BNP-1220b: […] [SEQ ID NO: 12]; BNP-1220c: […] [SEQ ID NO: 13]; BNP-600Wt: […] [SEQ ID NO: 14]; BNP-600a: […] CAT [SEQ ID NO: 15]; BNP-600b: […] [SEQ ID NO: 16].
(§2) Gel Shift reactions contained 15 mM Hepes pH 7.5, 150 mM NaCl, 1 mM EDTA, 0.5 mM DTT, 0.05% NP-40, 7.5% glycerol, 0.25 mg/ml bovine serum albumin, 1.5 μg poly(dI-dC) and the appropriate ³²P-labelled probe. After addition of protein extract the samples were incubated for 10 min at room temperature. Separation was performed on a 5% nondenaturing polyacrylamide gel with 0.25×TBE at 12 V/cm at room temperature for 50 min. […]
A general note: Mobility shift assays separate free from complexed probe on a gel.

Data set [2] addresses T1, SHOX-GST (GST-SHOX-STM, SHOX aa 1-194). The data set is described as follows: EMSA. The conditions noted are these: tags: N-terminal GST (pGEX, E. coli); chain copies: monomer at low, homodimer at high concentration (stated); label: 32P; 5' overhangs filled in. The procedure: FIG. 2A: 10 fmol of ³²P-radiolabelled double-stranded oligonucleotide containing the putative proximal binding site of SHOX was incubated with 0, 0.05, 0.5 and 3 μl purified SHOX-GST (250 nM). Monomeric binding of SHOX-GST could be observed with volumes of 0.05 and 0.5 μl, an increase in SHOX-GST concentration led to the formation of homeodimers.
as §1, §2
This is another data set of the same source.

Data set [3] shares this target. The experiment in a line: EMSA; five-nucleotide replacement, entire loss of binding. The conditions noted are these: tags: N-terminal GST (pGEX, E. coli); chain copies: monomer at low, homodimer at high concentration (stated); label: 32P; 5' overhangs filled in. The procedure:
To test the sequence specificity of the SHOX DNA binding, SHOX-GST was incubated with oligonucleotides containing artificially introduced mutations in the putative SHOX binding site. Nucleotides differing from the wild-type sequence (Wt) are highlighted in green (BNP-1220a, BNP-1220b, BNP-1220c).
as §1
Gel Shift reactions contained 15 mM Hepes pH 7.5, 150 mM NaCl, 1 mM EDTA, 0.5 mM DTT, 0.05% NP-40, 7.5% glycerol, 0.25 mg/ml bovine serum albumin, 1.5 μg poly(dI-dC) and the appropriate ³²P-labelled probe. After addition of protein extract the samples were incubated for 10 min at room temperature. Separation was performed on a 5% nondenaturing polyacrylamide gel with 0.25×TBE at 12 V/cm at room temperature for 50 min. Gels were then dried and exposed overnight at −80° C. […]

For data set [4] the target is unchanged. The data set is described as above. As to conditions: tags: N-terminal GST (pGEX, E. coli); chain copies: monomer at low, homodimer at high concentration (stated); label: 32P; 5' overhangs filled in.
Source text: as §1
Gel Shift reactions contained 15 mM Hepes pH 7.5, 150 mM NaCl, 1 mM EDTA, 0.5 mM DTT, 0.05% NP-40, 7.5% glycerol, 0.25 mg/ml bovine serum albumin, 1.5 μg poly(dI-dC) and the appropriate ³²P-labelled probe. After addition of protein extract the samples were incubated for 10 min at room temperature. Separation was performed on a 5% nondenaturing polyacrylamide gel with 0.25×TBE at 12 V/cm at room temperature for 50 min. Gels were then dried and exposed overnight at −80° C. […] In competition experiments, varying amounts of unlabelled competitor DNA were added to the samples preceding addition of protein extracts. In supershift experiments, 3 μg of anti-human SHOX-3-specific antibody were applied to the samples and preincubated for 15 min on ice prior separation for 2 h at 12 V/cm and 8° C.
The source holds these as a separate data set.

T1 sequence (O15266 1-194, one chain of several): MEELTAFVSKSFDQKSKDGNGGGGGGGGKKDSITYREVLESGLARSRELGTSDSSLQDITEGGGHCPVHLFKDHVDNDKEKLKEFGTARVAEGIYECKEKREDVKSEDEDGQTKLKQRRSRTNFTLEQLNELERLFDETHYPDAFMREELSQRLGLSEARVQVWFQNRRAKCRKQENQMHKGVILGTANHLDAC
Chain of SHOX full length (O15266 whole entry, one chain of several): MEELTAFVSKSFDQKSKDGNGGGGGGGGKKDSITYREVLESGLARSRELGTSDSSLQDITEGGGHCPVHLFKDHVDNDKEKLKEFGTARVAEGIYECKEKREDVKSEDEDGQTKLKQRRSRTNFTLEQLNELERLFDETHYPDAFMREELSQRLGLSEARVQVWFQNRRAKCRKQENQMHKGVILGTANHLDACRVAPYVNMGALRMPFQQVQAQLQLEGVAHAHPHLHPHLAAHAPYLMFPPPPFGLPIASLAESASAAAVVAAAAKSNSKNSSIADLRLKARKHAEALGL

B1: BNP-600 chromatin region (dsDNA)
DNA 1: TAATGAATTG
DNA 2: CAATTCATTA
Regarding B1, the binding signal in the data set with SHOX full length was found to be 428 fold enrichment.

B2: BNP-1220 Wt (dsDNA)
DNA 1: TAATCACCAGGCCACCTGCTAATGATAATTAGATCATGGGTGGTCAGATG
DNA 2: CATCTGACCACCCATGATCTAATTATCATTAGCAGGTGGCCTGGTGATTA
In the case of B2, in data set [1], the binding result is listed as “binds”.

B3: BNP-600 Wt (dsDNA)
DNA 1: TTCCTGGTCATACCCAGGCTTTTAATGAATTGCCACTGGGGAATCAGCAT
DNA 2: ATGCTGATTCCCCAGTGGCAATTCATTAAAAGCCTGGGTATGACCAGGAA
For the molecule B3, in data set [2], the binding result was “binds”.

B4: BNP-1220 chromatin region (dsDNA)
DNA 1: TAATGATAATTA
DNA 2: TAATTATCATTA
In the case of B4, in the data set with SHOX full length, the binding signal came out at 301 fold enrichment.

B5: BNP-1220c (dsDNA)
DNA 1: GGGTCACCAGGCCACCTGCTCCCGATACCTAGATCATGGGTGGTCAGATG
DNA 2: CATCTGACCACCCATGATCTAGGTATCGGGAGCAGGTGGCCTGGTGACCC
Consider B5, for which the binding result in data set [3] is recorded as “no binding”.

B6: BNP-600b (dsDNA)
DNA 1: GGGTTCCTGGTCATACCCAGGCTTTTGGGGAAGGGCCACTGGGGAATCAGCAT
DNA 2: ATGCTGATTCCCCAGTGGCCCTTCCCCAAAAGCCTGGGTATGACCAGGAACCC
With B6, the binding result in data set [4] is reported as “no binding”.

These data come from patent US20080293632, “Use of natriuretic peptides for the treatment of stature disorders related to shox gene” (Gudrun RAPPOLD-HOERBRAND, published 2008).
